Results as given in paper PMC6062542, “Structural and Biochemical Characterization of AaL, a Quorum Quenching Lactonase with Unusual Kinetic Properties” (Scientific Reports, 2018).

B1: AaL (Alicyclobacillus acidoterrestris ATCC 49025) (protein)
chain: MTNIAKAQPKLYVMDNGRMRMDKNWMIAMHNPATIANPNAPTEFIEFPIYTVLIDHPEGKILFDTSCNPDSMGAQGRWGEATQSMFPWTASEECYLHNRLEQLKVRPEDIKFVIASHLHLDHAGCLEMFTNATIIVHEDEFSGALQTYARNQTEGAYIWGDIDAWIKNNLNWRTIKRDEDNIVLAEGIKILNFGSGHAWGMLGLHVQLPEKGGIILASDAVYSAESYGPPIKPPGIIYDSLGFVRSVEKIKRIAKETNSEVWFGHDSEQFKRFRKSTEGYYE
notes: codon-optimized synthetic gene; N-terminal Strep tag (WSHPQFEK) + TEV site (ENLYFQS), tag cleaved with TEV; homodimer

Assays:
AaL = target: T1, AaL (Alicyclobacillus acidoterrestris, UniProt T0BMH6); assay: X-ray crystal structure, […] Å, crystal soak; format: binding; details: soaked 10 min with 20 mM C6-AHL; active site, two cobalt cations; modelled occupancy 0.7
T1 construct: gene K1I37_05175; codon-optimized synthetic gene; N-terminal Strep tag (WSHPQFEK) + TEV site (ENLYFQS), tag cleaved with TEV; homodimer
T1 sequence (T0BMH6 1-282): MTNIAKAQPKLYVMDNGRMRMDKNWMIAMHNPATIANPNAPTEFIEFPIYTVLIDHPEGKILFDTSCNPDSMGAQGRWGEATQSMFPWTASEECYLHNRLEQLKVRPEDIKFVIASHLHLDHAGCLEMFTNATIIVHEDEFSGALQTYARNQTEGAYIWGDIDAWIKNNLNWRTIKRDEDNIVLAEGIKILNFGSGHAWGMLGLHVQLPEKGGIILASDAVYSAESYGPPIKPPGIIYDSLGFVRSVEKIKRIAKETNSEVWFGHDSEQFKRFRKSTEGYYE

purified protein [1] = substrate: CCCC1CCC(=O)O1; assay: purified protein; format: biochemical, Alicyclobacillus acidoterrestris; details: 2.5 mM Bicine pH 8.3, 150 mM NaCl, 0.2 mM cresol purple, 0.5% DMSO, 0.2 mM CoCl2, room temperature
purified protein [2] = substrate: CCCCCC1CCCC(=O)O1; assay: purified protein; format: biochemical, Alicyclobacillus acidoterrestris; details: 2.5 mM Bicine pH 8.3, 150 mM NaCl, 0.2 mM cresol purple, 0.5% DMSO, 0.2 mM CoCl2, room temperature
purified protein [3] = substrate: O=C1CCCCO1; assay: purified protein; format: biochemical, Alicyclobacillus acidoterrestris; details: 2.5 mM Bicine pH 8.3, 150 mM NaCl, 0.2 mM cresol purple, 0.5% DMSO, 0.2 mM CoCl2, room temperature
purified protein [4] = substrate: O=C1CCCO1; assay: purified protein; format: biochemical, Alicyclobacillus acidoterrestris; details: 2.5 mM Bicine pH 8.3, 150 mM NaCl, 0.2 mM cresol purple, 0.5% DMSO, 0.2 mM CoCl2, room temperature

Molecule	X-ray crystal structure, 1.8 Å, crystal soak (AaL)	Km (purified protein [1])	Km (purified protein [2])	kcat (purified protein [2])	kcat/Km (purified protein [2])	Km (purified protein [3])	kcat (purified protein [3])	kcat/Km (purified protein [3])	Km (purified protein [4])	kcat (purified protein [4])	kcat/Km (purified protein [4])
CCCCCC(=O)N[C@H]1CCOC1=O [C6-AHL]	the structure of AaL bound to C6-AHL could be solved										
B1		36.9 ± 8.9 µM	18.5 ± 0.4 µM	8.4 ± 0.6 s⁻¹	450000 ± 100000 M⁻¹ s⁻¹	18.7 ± 0.4 µM	8.4 ± 0.4 s⁻¹	450000 ± 90000 M⁻¹ s⁻¹	171.0 ± 36.1 µM	23.5 ± 1.7 s⁻¹	140000 ± 30000 M⁻¹ s⁻¹
